How the values were obtained:
[1] = biological target: 5-FAM-labeled phospho-T427 peptide of the Rad9 SCD (S. cerevisiae); test: fluorescence polarisation
[2] = biological target: GST-BRCT (Rad9 tandem BRCT domain fused to GST), wild type (S. cerevisiae); test: pull-down

Kd [1] [µM]	yield of N-SCD in the pull-down (percent of the starting material) [2] [%]	Substance
78	–	GST-BRCT (Rad9 tandem BRCT domain fused to GST), wild type (domain or fragment)
–	> 10	PIKK-phosphorylated N-SCD (N-terminal fragment of Rad9-TEV-HA from MMS-treated cells) (from UniProt P14737 1-990) (domain or fragment)

Source: PMC2995296
